Values of other authors, collected in publication PMC8797470, “Disruption of the pentraxin 3/CD44 interaction as an efficient therapy for triple‐negative breast cancers” (Clinical and Translational Medicine, 2022).

Molecular target: PTX3 (Homo sapiens) (UniProt P26022)
Sequence (P26022 18-381): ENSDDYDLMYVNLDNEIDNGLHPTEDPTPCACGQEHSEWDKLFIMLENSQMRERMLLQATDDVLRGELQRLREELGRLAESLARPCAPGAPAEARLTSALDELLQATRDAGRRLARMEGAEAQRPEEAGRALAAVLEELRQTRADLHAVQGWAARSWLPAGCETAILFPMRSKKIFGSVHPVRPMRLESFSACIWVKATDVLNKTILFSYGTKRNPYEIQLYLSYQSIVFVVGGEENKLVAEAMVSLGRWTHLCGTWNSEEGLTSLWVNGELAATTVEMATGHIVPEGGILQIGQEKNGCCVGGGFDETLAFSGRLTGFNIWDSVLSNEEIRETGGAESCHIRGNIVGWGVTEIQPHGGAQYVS

Chain of TSG-6 link module (P98066 36-129): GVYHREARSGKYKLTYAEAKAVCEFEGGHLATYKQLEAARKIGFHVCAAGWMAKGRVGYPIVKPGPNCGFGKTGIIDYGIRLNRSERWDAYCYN

Kd: 481 nM
Substance: TSG-6 link module (from UniProt P98066)
